In publication PMC8367650:

Target: IdeS FabRICATOR enzyme
Assay: SEC

IdeS FabRICATOR enzyme
stoichiometry N: 2
